Measurements from US20230406885A1, “CYCLIC PEPTIDES FOR TRAPPING INTERLEUKIN-1 BETA” (MERCK SHARP & DOHME LLC, priority 2022, published 2023).
*1 amine or outer side, *2 acyl side, *3 side chain or, on linkers, in order; H or OH if unused. [ ]: non-standard residue; d: D form. TyrEtNAc = L-tyrosine O-ethyl acetamide, (S)-3-(4-(2-acetamidoethoxy)phenyl)-2-aminopropanoic acid, CC(=O)NCCOc1ccc(C[C@H](N[*:1])C(=O)[*:2])cc1; 3AzaPhe4AcPip = (S)-3-(6-(4-acetylpiperazin-1-yl)pyridin-3-yl)-2-aminopropanoic acid, CC(=O)N1CCN(c2ccc(C[C@H](N[*:1])C(=O)[*:2])cn2)CC1; TyrEtMor = (S)-2-amino-3-(4-(2-morpholinoethoxy)phenyl)propanoic acid, O=C([C@H](Cc1ccc(OCCN2CCOCC2)cc1)N[*:1])[*:2]; Pro(trans-4-NH2) = O=C([C@@H]1C[C@@H](N[*:3])CN1[*:1])[*:2]; Bip(4'-COOH) = N[C@@H](Cc1ccc(-c2ccc(C(=O)O)cc2)cc1)C(=O)O; 1Nal(3S-Me) = C[C@@H](c1cccc2ccccc12)[C@H](N)C(=O)O; Ala(indazol-1-yl) = N[C@@H](Cn1ncc2ccccc21)C(=O)O; Ala(indolin-1-yl) = N[C@@H](CN1CCc2ccccc21)C(=O)O; Phe(4-COOH) = N[C@@H](Cc1ccc(C(=O)O)cc1)C(=O)O; h3Pal(5-CN) = N#Cc1cncc(CC[C@H](N)C(=O)O)c1; 1Nal = N[C@@H](Cc1cccc2ccccc12)C(=O)O; hTyr = N[C@@H](CCc1ccc(O)cc1)C(=O)O; 4Pal = N[C@@H](Cc1ccncc1)C(=O)O; Orn = NCCC[C@H](N)C(=O)O; dNMeA = CN[C@H](C)C(=O)O; Dab = NCC[C@H](N)C(=O)O; Dap = NC[C@H](N)C(=O)O; Aib = CC(C)(N)C(=O)O

The binders below were run against Recombinant human IL-1β (BioLegend 579404) (human, UniProt P01584 117-269) (assay: cell-based or functional assay).

Row | Binder | MRC5 IC50
1 | cyclo([Bip(4'-COOH)]W[Phe(4-COOH)]G[Pro(trans-4-NH2)][1Nal(3S-Me)]D[dNMeA]G[Bip(4'-COOH)][1Nal][Dab][Aib][hTyr]) (SMILES C[C@@H]1C(=O)NCC(=O)N[C@@H](Cc2ccc(-c3ccc(C(=O)O)cc3)cc2)C(=O)N[C@@H](Cc2cccc3ccccc23)C(=O)N[C@@H](CCN)C(=O)NC(C)(C)C(=O)N[C@@H](CCc2ccc(O)cc2)C(=O)N[C@@H](Cc2ccc(-c3ccc(C(=O)O)cc3)cc2)C(=O)N[C@@H](Cc2c[nH]c3ccccc23)C(=O)N[C@@H](Cc2ccc(C(=O)O)cc2)C(=O)NCC(=O)N2C[C@H](N)C[C@H]2C(=O)N[C@@H]([C@@H](C)c2cccc3ccccc23)C(=O)N[C@@H](CC(=O)O)C(=O)N1C) [SEQ ID NO: 16] | 0.175 nM
2 | cyclo([Bip(4'-COOH)]W[Phe(4-COOH)]G[Pro(trans-4-NH2)][1Nal(3S-Me)]D[dNMeA]G[Bip(4'-COOH)][1Nal][Dap][Aib][h3Pal(5-CN)]) (SMILES C[C@@H]1C(=O)NCC(=O)N[C@@H](Cc2ccc(-c3ccc(C(=O)O)cc3)cc2)C(=O)N[C@@H](Cc2cccc3ccccc23)C(=O)N[C@@H](CN)C(=O)NC(C)(C)C(=O)N[C@@H](CCc2cncc(C#N)c2)C(=O)N[C@@H](Cc2ccc(-c3ccc(C(=O)O)cc3)cc2)C(=O)N[C@@H](Cc2c[nH]c3ccccc23)C(=O)N[C@@H](Cc2ccc(C(=O)O)cc2)C(=O)NCC(=O)N2C[C@H](N)C[C@H]2C(=O)N[C@@H]([C@@H](C)c2cccc3ccccc23)C(=O)N[C@@H](CC(=O)O)C(=O)N1C) [SEQ ID NO: 18] | 0.0885 nM
3 | cyclo([Bip(4'-COOH)]W[Phe(4-COOH)]G[Pro(trans-4-NH2)][1Nal(3S-Me)]D[dNMeA]G[Bip(4'-COOH)][1Nal][Dap][Aib]G) (SMILES C[C@@H]1C(=O)NCC(=O)N[C@@H](Cc2ccc(-c3ccc(C(=O)O)cc3)cc2)C(=O)N[C@@H](Cc2cccc3ccccc23)C(=O)N[C@@H](CN)C(=O)NC(C)(C)C(=O)NCC(=O)N[C@@H](Cc2ccc(-c3ccc(C(=O)O)cc3)cc2)C(=O)N[C@@H](Cc2c[nH]c3ccccc23)C(=O)N[C@@H](Cc2ccc(C(=O)O)cc2)C(=O)NCC(=O)N2C[C@H](N)C[C@H]2C(=O)N[C@@H]([C@@H](C)c2cccc3ccccc23)C(=O)N[C@@H](CC(=O)O)C(=O)N1C) [SEQ ID NO: 17] | 0.222 nM
4 | cyclo([Bip(4'-COOH)]W[Phe(4-COOH)]G[Pro(trans-4-NH2)][1Nal(3S-Me)]D[dNMeA]G[Bip(4'-COOH)][Ala(indolin-1-yl)][Dap][dA][hTyr]) (SMILES C[C@@H]1C(=O)NCC(=O)N[C@@H](Cc2ccc(-c3ccc(C(=O)O)cc3)cc2)C(=O)N[C@@H](CN2CCc3ccccc32)C(=O)N[C@@H](CN)C(=O)N[C@H](C)C(=O)N[C@@H](CCc2ccc(O)cc2)C(=O)N[C@@H](Cc2ccc(-c3ccc(C(=O)O)cc3)cc2)C(=O)N[C@@H](Cc2c[nH]c3ccccc23)C(=O)N[C@@H](Cc2ccc(C(=O)O)cc2)C(=O)NCC(=O)N2C[C@H](N)C[C@H]2C(=O)N[C@@H]([C@@H](C)c2cccc3ccccc23)C(=O)N[C@@H](CC(=O)O)C(=O)N1C) [SEQ ID NO: 14] | 0.0297 nM
5 | cyclo([Bip(4'-COOH)]W[Phe(4-COOH)]G[Pro(trans-4-NH2)][1Nal(3S-Me)]D[dNMeA]G[Bip(4'-COOH)][1Nal]L[Aib]G) (SMILES CC(C)C[C@@H]1NC(=O)[C@H](Cc2cccc3ccccc23)NC(=O)[C@H](Cc2ccc(-c3ccc(C(=O)O)cc3)cc2)NC(=O)CNC(=O)[C@@H](C)N(C)C(=O)[C@H](CC(=O)O)NC(=O)[C@H]([C@@H](C)c2cccc3ccccc23)NC(=O)[C@@H]2C[C@@H](N)CN2C(=O)CNC(=O)[C@H](Cc2ccc(C(=O)O)cc2)NC(=O)[C@H](Cc2c[nH]c3ccccc23)NC(=O)[C@H](Cc2ccc(-c3ccc(C(=O)O)cc3)cc2)NC(=O)CNC(=O)C(C)(C)NC1=O) [SEQ ID NO: 19] | 0.118 nM
6 | cyclo([Bip(4'-COOH)]W[Phe(4-COOH)]G[Pro(trans-4-NH2)][1Nal(3S-Me)]D[dNMeA]G[Bip(4'-COOH)][1Nal][Dab][Aib]G) (SMILES C[C@@H]1C(=O)NCC(=O)N[C@@H](Cc2ccc(-c3ccc(C(=O)O)cc3)cc2)C(=O)N[C@@H](Cc2cccc3ccccc23)C(=O)N[C@@H](CCN)C(=O)NC(C)(C)C(=O)NCC(=O)N[C@@H](Cc2ccc(-c3ccc(C(=O)O)cc3)cc2)C(=O)N[C@@H](Cc2c[nH]c3ccccc23)C(=O)N[C@@H](Cc2ccc(C(=O)O)cc2)C(=O)NCC(=O)N2C[C@H](N)C[C@H]2C(=O)N[C@@H]([C@@H](C)c2cccc3ccccc23)C(=O)N[C@@H](CC(=O)O)C(=O)N1C) [SEQ ID NO: 15] | 0.653 nM
7 | cyclo([Bip(4'-COOH)]W[Phe(4-COOH)]G[Pro(trans-4-NH2)][1Nal(3S-Me)]D[dNMeA]G[Bip(4'-COOH)][4Pal][Dap][dA][h3Pal(5-CN)]) (SMILES C[C@@H]1C(=O)NCC(=O)N[C@@H](Cc2ccc(-c3ccc(C(=O)O)cc3)cc2)C(=O)N[C@@H](Cc2ccncc2)C(=O)N[C@@H](CN)C(=O)N[C@H](C)C(=O)N[C@@H](CCc2cncc(C#N)c2)C(=O)N[C@@H](Cc2ccc(-c3ccc(C(=O)O)cc3)cc2)C(=O)N[C@@H](Cc2c[nH]c3ccccc23)C(=O)N[C@@H](Cc2ccc(C(=O)O)cc2)C(=O)NCC(=O)N2C[C@H](N)C[C@H]2C(=O)N[C@@H]([C@@H](C)c2cccc3ccccc23)C(=O)N[C@@H](CC(=O)O)C(=O)N1C) [SEQ ID NO: 21] | 0.0234 nM
8 | cyclo([TyrEtNAc]W[Phe(4-COOH)]G[Pro(trans-4-NH2)][1Nal(3S-Me)]D[dNMeA]G[Bip(4'-COOH)]W[Dap][dA][TyrEtMor]) (SMILES CC(=O)NCCOc1ccc(C[C@@H]2NC(=O)[C@H](Cc3ccc(OCCN4CCOCC4)cc3)NC(=O)[C@@H](C)NC(=O)[C@H](CN)NC(=O)[C@H](Cc3c[nH]c4ccccc34)NC(=O)[C@H](Cc3ccc(-c4ccc(C(=O)O)cc4)cc3)NC(=O)CNC(=O)[C@@H](C)N(C)C(=O)[C@H](CC(=O)O)NC(=O)[C@H]([C@@H](C)c3cccc4ccccc34)NC(=O)[C@@H]3C[C@@H](N)CN3C(=O)CNC(=O)[C@H](Cc3ccc(C(=O)O)cc3)NC(=O)[C@H](Cc3c[nH]c4ccccc34)NC2=O)cc1) [SEQ ID NO: 120] | 0.86 nM
9 | cyclo([3AzaPhe4AcPip]W[Phe(4-COOH)]G[Pro(trans-4-NH2)][1Nal(3S-Me)]D[dNMeA]G[Bip(4'-COOH)]KL[dA][h3Pal(5-CN)]) (SMILES CC(=O)N1CCN(c2ccc(C[C@@H]3NC(=O)[C@H](CCc4cncc(C#N)c4)NC(=O)[C@@H](C)NC(=O)[C@H](CC(C)C)NC(=O)[C@H](CCCCN)NC(=O)[C@H](Cc4ccc(-c5ccc(C(=O)O)cc5)cc4)NC(=O)CNC(=O)[C@@H](C)N(C)C(=O)[C@H](CC(=O)O)NC(=O)[C@H]([C@@H](C)c4cccc5ccccc45)NC(=O)[C@@H]4C[C@@H](N)CN4C(=O)CNC(=O)[C@H](Cc4ccc(C(=O)O)cc4)NC(=O)[C@H](Cc4c[nH]c5ccccc45)NC3=O)cn2)CC1) [SEQ ID NO: 2] | 0.0217 nM
10 | cyclo([Bip(4'-COOH)]W[Phe(4-COOH)]G[Pro(trans-4-NH2)][1Nal(3S-Me)]D[dNMeA]G[Bip(4'-COOH)][4Pal][Dap][dA][hTyr]) (SMILES C[C@@H]1C(=O)NCC(=O)N[C@@H](Cc2ccc(-c3ccc(C(=O)O)cc3)cc2)C(=O)N[C@@H](Cc2ccncc2)C(=O)N[C@@H](CN)C(=O)N[C@H](C)C(=O)N[C@@H](CCc2ccc(O)cc2)C(=O)N[C@@H](Cc2ccc(-c3ccc(C(=O)O)cc3)cc2)C(=O)N[C@@H](Cc2c[nH]c3ccccc23)C(=O)N[C@@H](Cc2ccc(C(=O)O)cc2)C(=O)NCC(=O)N2C[C@H](N)C[C@H]2C(=O)N[C@@H]([C@@H](C)c2cccc3ccccc23)C(=O)N[C@@H](CC(=O)O)C(=O)N1C) [SEQ ID NO: 22] | 0.0325 nM
11 | cyclo([Bip(4'-COOH)]W[Phe(4-COOH)]G[Pro(trans-4-NH2)][1Nal(3S-Me)]D[dNMeA]G[Bip(4'-COOH)][Ala(indazol-1-yl)][Dap][dA][hTyr]) (SMILES C[C@@H]1C(=O)NCC(=O)N[C@@H](Cc2ccc(-c3ccc(C(=O)O)cc3)cc2)C(=O)N[C@@H](Cn2ncc3ccccc32)C(=O)N[C@@H](CN)C(=O)N[C@H](C)C(=O)N[C@@H](CCc2ccc(O)cc2)C(=O)N[C@@H](Cc2ccc(-c3ccc(C(=O)O)cc3)cc2)C(=O)N[C@@H](Cc2c[nH]c3ccccc23)C(=O)N[C@@H](Cc2ccc(C(=O)O)cc2)C(=O)NCC(=O)N2C[C@H](N)C[C@H]2C(=O)N[C@@H]([C@@H](C)c2cccc3ccccc23)C(=O)N[C@@H](CC(=O)O)C(=O)N1C) [SEQ ID NO: 13] | 0.031 nM
12 | cyclo([Bip(4'-COOH)]W[Phe(4-COOH)]G[Pro(trans-4-NH2)][1Nal(3S-Me)]D[dNMeA]G[Bip(4'-COOH)][1Nal][Orn][Aib]G) (SMILES C[C@@H]1C(=O)NCC(=O)N[C@@H](Cc2ccc(-c3ccc(C(=O)O)cc3)cc2)C(=O)N[C@@H](Cc2cccc3ccccc23)C(=O)N[C@@H](CCCN)C(=O)NC(C)(C)C(=O)NCC(=O)N[C@@H](Cc2ccc(-c3ccc(C(=O)O)cc3)cc2)C(=O)N[C@@H](Cc2c[nH]c3ccccc23)C(=O)N[C@@H](Cc2ccc(C(=O)O)cc2)C(=O)NCC(=O)N2C[C@H](N)C[C@H]2C(=O)N[C@@H]([C@@H](C)c2cccc3ccccc23)C(=O)N[C@@H](CC(=O)O)C(=O)N1C) [SEQ ID NO: 20] | 0.44 nM
